± gives the uncertainty stated by the source.

The data set is described as follows: amyloid nucleation score (Sup35N fusion, yeast selection) (log enrichment); library NNK3; higher = more nucleation; inactive = no reads after selection. The gist of the method:
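Growth for 7 days at 30°C on medium lacking adenine and uracil followed a 24-hour induction with 100 μM copper sulfate of psi-negative yeast expressing peptides of 20 random codons fused to Sup35N. Input and output plasmid inserts were sequenced with Illumina, and sequences with under 100 input reads were excluded. Nucleation score is the DiMSum log enrichment of output over input reads, centred on the mode score of non-aggregating sequences.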
In the case of SKKYFVHFILVNNFGVGY, the amyloid nucleation score entry was “inactive”. For SKMLIWSYLHGGNRCDLSDW, the amyloid nucleation score result is “inactive”.

In the case of SKSITEADNPRNILNASGVE, the amyloid nucleation score result was “inactive”.

For the substance SKVIAPWYEEMRWWRSTGAV, the amyloid nucleation score result was “inactive”.

For the substance SKVQVIFLSSFFGTIQLWVL, the amyloid nucleation score result is “inactive”. SKVRTVGRLEVSVRIVKTGL returned an amyloid nucleation score of 0.085 ± 0.32. Regarding SLATSYVNFILCRLLKFDHT, the amyloid nucleation score entry was “inactive”. Regarding SLCDMREWSALVFITHMSMV, the amyloid nucleation score result was “inactive”.

For the substance SLCFIWTCMSLVVHTALSVH, the amyloid nucleation score entry was “inactive”. SLCMVTLDKAIRLYYNPMYF returned an amyloid nucleation score of 2.18 ± 0.08.

For SLDCCNGVDRFKVSNILHYP, the amyloid nucleation score result is “inactive”.

Substance SLDLNCQIMLYKSMRCDEE came in with an amyloid nucleation score of 1.61 ± 0.064.

As for SLFFLSMFVHLMDEMWDWES, the amyloid nucleation score result is “inactive”. With SLFIYGHYEHKHSGSLKFFA, the amyloid nucleation score result is “inactive”. Regarding SLFYHTGRS, the amyloid nucleation score was 0.459 ± 0.15. With SLGAMYVRCDKSWR, the amyloid nucleation score result is “inactive”.

In the case of SLGFCKVGALLRWFCSQCQG, the amyloid nucleation score was determined as 0.561 ± 0.37. On to SLGKPSHREFYDFVVAAKTT, for which the amyloid nucleation score result is “inactive”. Consider SLGSCTMFSFSIFWISVQSV, for which the amyloid nucleation score came out at 1.34 ± 0.084. As for SLHNM, the amyloid nucleation score result was “inactive”.

For SLKSPLRCFLILHSPALCLG, the amyloid nucleation score entry was “inactive”. The result for SLLCKFIVRNPNSSLIRSAS reads “inactive”. The entry for SLLSRFIEEGASCRCTRDG is “inactive”; for SLLVLETDGCFPVAPLAGDS it is -0.926 ± 1.1; for SLLYYFWTNPGAFSKYIYSM it is “inactive”. Take SLMIG: the amyloid nucleation score result is “inactive”.

Take SLNER: the amyloid nucleation score entry was “inactive”. The entry for SLPNA is “inactive”.

Turning to SLRNRLVVTSVDYRMHLRRG, the amyloid nucleation score entry was “inactive”. Regarding SLSYSSLCSALMWVHVKSYD, the amyloid nucleation score result was “inactive”. The result for SLSYTRCCQNTILIKRYGLE reads “inactive”; that for SLVWTDRNYVSTNGSSCVWL, “inactive”. Turning to SLVYMWPDGTFLRWMGAWH, the amyloid nucleation score entry was “inactive”.

On to SLWMQGWYSSGLLPFGSIAE, for which the amyloid nucleation score entry is “inactive”.

For the substance SLWRLMSETVGLKKMQ, the amyloid nucleation score result is “inactive”.

Consider SLYTARVFGVNYHFVTSKFF, for which the amyloid nucleation score entry is “inactive”. Turning to SMADPRFQESYEDRETYSIS, the amyloid nucleation score result was “inactive”.

As for SMCPLYFINHAIAVDAMKFF, the amyloid nucleation score result is “inactive”. Take SMCPPLQRG: the amyloid nucleation score entry is “inactive”. The result for SMDNFL reads “inactive”; that for SMGKCRFRCVNIIFYWRWIH, 1.25 ± 0.14; that for SMGLFDTQFVGELHVASRLF, “inactive”. Take SMRKRKRIKLDI: the amyloid nucleation score result was “inactive”. Consider SMRLEFGLSMCVWVVDPSN, for which the amyloid nucleation score was determined as 0.706 ± 0.15. In turn, SMSPFRKFLTFWNMGPKRTL gave an amyloid nucleation score of -1.06 ± 2.4. For SMSPTKLYSSIMVNSWEWLF, the amyloid nucleation score result was “inactive”. Take SMSSELCLGNRHYG: the amyloid nucleation score entry is “inactive”.

Consider SMTWSRIAFEIMWNSVCRLI, for which the amyloid nucleation score entry is “inactive”. Regarding SNARKGLMNVLRRYWLCDWT, the amyloid nucleation score was -0.412 ± 0.88. As to SNDIRF, the amyloid nucleation score result was “inactive”.

Regarding SNDVCVC, the amyloid nucleation score entry is “inactive”.

As to SNLCGFCRSHVIKVMLLLSA, the amyloid nucleation score result is “inactive”. Turning to SNLVPMQCVIL, the amyloid nucleation score result is “inactive”. The substance SNPLYGSDMQVHYF returned an amyloid nucleation score of 1.16 ± 0.14. In the case of SNPVFFVMLAPLWVAQLSNP, the amyloid nucleation score result is “inactive”. On to SNQTWMVNET, for which the amyloid nucleation score entry was “inactive”. For SNRYKVCWCCPFLFRGVTRL, the amyloid nucleation score was 1.94 ± 0.093.

SNSFTAFVYTYPWDHLVGVL: the amyloid nucleation score is -0.195 ± 0.47. SNSFVDFRHSDWF: the amyloid nucleation score entry was “inactive”. Regarding SPFCYRR, the amyloid nucleation score entry is “inactive”. SPFLKTTVAGLGSPRELSIR: the amyloid nucleation score result was “inactive”. As for SPFPLEPFS, the amyloid nucleation score entry is “inactive”. Take SPGLMRYRRTPLAKSLPWMK: the amyloid nucleation score result is “inactive”.

Regarding SPGPFR, the amyloid nucleation score result was “inactive”. On to SPKFVRWGRQVVSSVRA, for which the amyloid nucleation score entry was “inactive”. SPLSRTFTPTYAGDMLLNSS: the amyloid nucleation score result was “inactive”. The result for SPRTNNPTMHRSGW reads “inactive”; that for SPSGSIVAVTPLIWR, “inactive”; that for SQFDEMLFSKMEPWQVLFTM, “inactive”. As to SQFLLYTVQQFRWTACHVAF, the amyloid nucleation score result was “inactive”.

Take SQGLYVGPVAPSGTVRRVWM: the amyloid nucleation score entry is “inactive”. The entry for SQHHPSGSSMWGKWIMLDPR is “inactive”. For the substance SQMSPSNDMWLALNV, the amyloid nucleation score result was “inactive”. The entry for SQRYLNLVPKYLSRLVMCGI is “inactive”; for SQVVTVRCPDSSLCEIFSWG it is “inactive”; for SRDTVRVLNLLGRKALMRGQ it is “inactive”.

Turning to SREQIVCQVRSITLAYKNSV, the amyloid nucleation score result is “inactive”. Take SRFEGLASDTDMYSRDSTWR: the amyloid nucleation score entry is “inactive”.

In the case of SRFYETDYSYFSIKSYDAGG, the amyloid nucleation score result was “inactive”. As to SRGLYKYLGLRFFMYGRVLR, the amyloid nucleation score entry was “inactive”. With SRITYEGQSRGCTLGNGLKR, the amyloid nucleation score entry was “inactive”. The result for SRKWCQFYSCIIYTTNLLGR reads 1.85 ± 0.069.

Regarding SRLIIVPCCLL, the amyloid nucleation score was 0.478 ± 0.28. As for SRLMWSGNLWRILVWCFTSN, the amyloid nucleation score result was “inactive”. The entry for SRMDNSDTIYNILLWTSSYS is “inactive”; for SRNSSIMCFL it is “inactive”; for SRQGVNQKRTVCWS it is “inactive”. Turning to SRQKINHQCCYKFCVVDYY, the amyloid nucleation score came out at 1.56 ± 0.091. As for SRSCNVLSEWRGINVNGWGN, the amyloid nucleation score is -0.176 ± 1.1. The entry for SRTLIIIVYFTTNIIVLEFY is “inactive”; for SRVHEVLNFCTY it is “inactive”. With SRWTCLNFVWSTSQHLQWN, the amyloid nucleation score entry is “inactive”. Turning to SRWVLSWSIVITIHLDMRSL, the amyloid nucleation score entry was “inactive”. The result for SRYMARTSDPARYVTPVSNT reads “inactive”; that for SRYTLNAFYMWG, 2.02 ± 0.1.

In turn, SSCNLIWCFSSDAILKPLMQ had an amyloid nucleation score of 1.38 ± 0.093.

On to SSCSSDLAKQYGDMTFI, for which the amyloid nucleation score result is “inactive”. As for SSFAGVFNFRDGTQSQILYV, the amyloid nucleation score result is “inactive”. Take SSGVTVDGSMCRI: the amyloid nucleation score entry is “inactive”. On to SSKASSFVFMACGPGTEVIG, for which the amyloid nucleation score entry is “inactive”. Take SSKSSRLNMTVFSKTVMTIM: the amyloid nucleation score entry was “inactive”. Regarding SSKYISFSTTSYCTGLYRTP, the amyloid nucleation score amounted to 0.896 ± 0.16. Take SSLLYIDRIVLSRTVIPMLL: the amyloid nucleation score result is “inactive”. For SSLSDSDGSFLDIMGAYYWA, the amyloid nucleation score entry was “inactive”.

As for SSMWF, the amyloid nucleation score entry is “inactive”. The result for SSPKMMCSFFDMSTLPFVYD reads “inactive”; that for SSQDVTALLSRLN, “inactive”. On to SSSESKFLYTDMWHMYWDFC, for which the amyloid nucleation score worked out at 0.548 ± 0.14. In the case of SSSFVYFYSLVRFAPTLREY, the amyloid nucleation score result is “inactive”. With SSSMCYRCDLSMFLGSGRSG, the amyloid nucleation score entry is “inactive”. SSTMLTNIWHHPNHGVVWDR: the amyloid nucleation score entry was “inactive”.

As for SSVKMTDLRH, the amyloid nucleation score entry was “inactive”. The result for SSYCGHCNYEPRSSWFILFF reads 1.61 ± 0.072; that for SSYYISNVSMPTFSEFVVTL, “inactive”; that for STCMFVGSDSRVRVRYIDIC, “inactive”.

As to STICDFNLICSAFANSVRLR, the amyloid nucleation score result is “inactive”. The entry for STIYKPVYFRVVTGFLMW is “inactive”; for STPSLGTSF it is “inactive”; for STSYGLRIVSKNDDYLRTAR it is 0.511 ± 0.19. On to STSYYPDVRVATRSSYWHFT, for which the amyloid nucleation score was determined as 1.14 ± 0.18. The result for STTGWSMYYWSIRADREVTY reads “inactive”; that for STVEENIY, “inactive”. In the case of STVELWQELFAFNTRGGSNG, the amyloid nucleation score result was “inactive”. With STVQLYSPIQESVVTVFTNK, the amyloid nucleation score result is “inactive”. Take STVYSRHIKTDLTNCCKFFY: the amyloid nucleation score was -0.657 ± 0.98. With STYFLLILFEGKCFNCSVGK, the amyloid nucleation score was determined as 1.38 ± 0.077. As to SVCLSDRSSGS, the amyloid nucleation score result is “inactive”. On to SVCSCNAKYARIGMMLFLLG, for which the amyloid nucleation score was 1.16 ± 0.075. Turning to SVCWVFYCFFSLWCRLSESR, the amyloid nucleation score result was “inactive”.
